From article PMC3500403

Experiments:
[1] = biological target: taxol stabilized microtubules (UniProt Q6B856); assay: co-sedimentation
[2] = biological target: human Ska1 complex containing GFP-Ska1 (human) (UniProt Q96BD8); assay: single-molecule TIRF microscopy, intensity distribution and photobleaching steps

Sequence of human Ska1 complex (Q96BD8 whole entry): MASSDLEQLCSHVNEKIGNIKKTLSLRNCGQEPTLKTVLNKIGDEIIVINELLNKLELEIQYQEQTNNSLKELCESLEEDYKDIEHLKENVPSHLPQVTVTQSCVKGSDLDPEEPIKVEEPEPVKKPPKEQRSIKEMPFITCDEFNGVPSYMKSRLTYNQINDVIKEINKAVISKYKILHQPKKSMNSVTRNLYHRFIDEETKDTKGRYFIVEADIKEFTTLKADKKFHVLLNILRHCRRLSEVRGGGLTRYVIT
Sequence of human Ska1 complex (Q8WVK7 whole entry): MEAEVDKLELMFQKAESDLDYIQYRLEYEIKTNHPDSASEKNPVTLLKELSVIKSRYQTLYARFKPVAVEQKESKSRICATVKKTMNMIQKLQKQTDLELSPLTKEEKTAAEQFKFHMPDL
Sequence of human Ska1 complex (Q8IX90 whole entry): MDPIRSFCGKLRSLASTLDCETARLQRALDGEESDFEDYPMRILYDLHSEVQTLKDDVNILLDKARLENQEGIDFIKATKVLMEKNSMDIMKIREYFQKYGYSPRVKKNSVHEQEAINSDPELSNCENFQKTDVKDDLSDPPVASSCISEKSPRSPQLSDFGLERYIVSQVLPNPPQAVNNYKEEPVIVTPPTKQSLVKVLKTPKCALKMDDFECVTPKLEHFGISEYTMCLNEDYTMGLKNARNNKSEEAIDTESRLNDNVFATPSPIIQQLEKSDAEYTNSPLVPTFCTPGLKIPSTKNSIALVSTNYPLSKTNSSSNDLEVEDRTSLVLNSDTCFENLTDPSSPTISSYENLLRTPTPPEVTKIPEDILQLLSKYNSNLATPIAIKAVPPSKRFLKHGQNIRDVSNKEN
Sequence of human Ska1 complex containing GFP-Ska1 (Q96BD8 whole entry): as the sequence (Q96BD8 whole entry) above
Sequence of human Ska1 complex containing GFP-Ska1 (Q8WVK7 whole entry): as the sequence (Q8WVK7 whole entry) above
Sequence of human Ska1 complex containing GFP-Ska1 (Q8IX90 whole entry): as the sequence (Q8IX90 whole entry) above

Kd [1] [µM] | stoichiometry N [2] | Substance
11.3 | – | C. elegans Ska1 complex (from UniProt Q9XWS0 1-243)
2.4 | – | human Ska1 complex (from UniProt Q96BD8 1-255; Q8WVK7 1-121; Q8IX90 1-412)
– | 2 | human Ska1 complex containing GFP-Ska1 (from UniProt Q96BD8 1-255; Q8WVK7 1-121; Q8IX90 1-412)
